For two substances, % mCD45+ mNK1.1+ mNKP46+ cells and % mCD45+ mNK1.1+ hNKP46+ cells results are on record in US20250143272A1.

Test [1] deals with mouse NKP46 (NCR1) protein, NP_034876.2 (mouse) (UniProt Q8C567). Kind of test: flow cytometry, peripheral blood NK cells of C57BL/6 wild-type mouse. On the technique in general: In flow cytometry, cells or beads pass a laser one at a time.
The target is the same in test [2]. As to the kind of experiment: flow cytometry, peripheral blood NK cells of NKP46 humanized heterozygous mouse (cells carry mouse and humanized NKP46).
For test [3] the target is unchanged. Kind of test: flow cytometry, spleen NK cells of C57BL/6 wild-type mouse.
The target is the same in test [4]. As to the kind of experiment: flow cytometry, spleen NK cells of NKP46 humanized heterozygous mouse (cells carry mouse and humanized NKP46).
Test [5] shares this target. Kind of test: flow cytometry, spleen NK cells of C57BL/6 wild-type mouse. This is another data set of the same source.
Test [6] deals with humanized NKP46 protein (engineered mouse NKP46 after humanization) (human/mouse chimera (human NKP46 amino acids 2-253 replacing mouse 2-253; rest mouse)). Kind of test: flow cytometry, spleen NK cells of NKP46 humanized homozygous mouse.
Test [7] concerns the target mouse NKP46 (NCR1) protein, NP_034876.2 (mouse) (UniProt Q8C567). As to the kind of experiment: flow cytometry, peripheral blood NK cells of C57BL/6 wild-type mouse. This is another data set of the same source.
For test [8], the target named is humanized NKP46 protein (engineered mouse NKP46 after humanization) (human/mouse chimera (human NKP46 amino acids 2-253 replacing mouse 2-253; rest mouse)). As to the kind of experiment: flow cytometry, peripheral blood NK cells of NKP46 humanized homozygous mouse.
Test [9] shares this target. As to the kind of experiment: flow cytometry, spleen NK cells of NKP46 humanized heterozygous mouse.
For test [10] the target is unchanged. Kind of test: flow cytometry, peripheral blood NK cells of NKP46 humanized heterozygous mouse.

Chain of humanized NKP46 protein (engineered mouse NKP46 after humanization) (human/mouse chimera (human NKP46 amino acids 2-253 replacing mouse 2-253; rest mouse)) (chain, as listed by the source mutant limits assumed): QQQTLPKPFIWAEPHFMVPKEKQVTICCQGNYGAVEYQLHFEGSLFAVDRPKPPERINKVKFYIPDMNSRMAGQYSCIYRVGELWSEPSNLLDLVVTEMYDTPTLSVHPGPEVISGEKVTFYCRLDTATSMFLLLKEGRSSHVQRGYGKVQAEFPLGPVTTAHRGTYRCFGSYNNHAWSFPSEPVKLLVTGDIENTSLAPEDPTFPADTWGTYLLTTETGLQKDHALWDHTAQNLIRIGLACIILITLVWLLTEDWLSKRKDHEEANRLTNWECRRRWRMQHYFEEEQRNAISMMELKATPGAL
Chain of UniProt Q8C567 (Q8C567 17-325 R131Q): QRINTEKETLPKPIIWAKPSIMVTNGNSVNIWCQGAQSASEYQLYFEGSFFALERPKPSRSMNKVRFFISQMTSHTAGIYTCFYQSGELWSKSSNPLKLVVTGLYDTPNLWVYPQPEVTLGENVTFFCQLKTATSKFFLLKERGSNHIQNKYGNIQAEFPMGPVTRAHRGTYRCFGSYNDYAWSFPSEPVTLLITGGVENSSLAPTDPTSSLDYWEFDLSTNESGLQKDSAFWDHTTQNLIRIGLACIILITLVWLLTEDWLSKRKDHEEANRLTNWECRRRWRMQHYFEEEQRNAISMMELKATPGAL

With “APC anti-mouse CD335 (NKP46) Antibody (BioLegend, Catalog number: 137607)”, the % mCD45+ mNK1.1+ mNKP46+ cells was determined as 2.81% in [1]; 4.33% in test [2]; 4.21% in test [3]; 3.44% in test [4]; 2.25% in test [5]; 0.035% in [6]. For the same substance, the % mCD45+ mNK1.1+ mNKP46+ cells came out at 3.96% in [7] and 0.009% in test [8].

In the case of “PE anti-human CD335 (NKP46) Antibody (BioLegend, Catalog number: 331907)”, the % mCD45+ mNK1.1+ hNKP46+ cells was 0.034% in test [1]; 4.08% in test [9]; 4.95% in test [10]; 0.14% in [3]; 0.11% in test [5]; 2.79% in test [6]. Further, the % mCD45+ mNK1.1+ hNKP46+ cells in test [7] came out at 0.056%; in test [8], 3.55%.
